Broadly, the Tm is the temperature at the midpoint of the melting transition.

This data set can be described thus: melting temperature; melt of duplexes. The settings on record: sodium 0.0675 M; strand 1 µM.
In the case of “CGACGTGCAGTATGTGCTG+CAGCACATCAGGCACGTCG ((((((((...((((((((+))))))))...))))))))”, the midpoint of thermal melting (Tm) was found to be 50.2 °C. On to “CGACGTGCGAGATGTGCTG+CAGCACATCACGCACGTCG (((((((((.(((((((((+))))))))).)))))))))”, for which the Tm was 61.4 °C. As for “CGACGTGCCTAATGTGCTG+CAGCACATTATGCACGTCG ((((((((.((((((((((+)))))))))).))))))))”, the Tm worked out at 54 °C. With “CGACGTGCGTTATGTGCTG+CAGCACATTTTGCACGTCG ((((((((...((((((((+))))))))...))))))))” the figure was 49.7 °C; with “CGACGTGCGCAATGTGCTG+CAGCACATGGTGCACGTCG ((((((((.(.((((((((+)))))))).).))))))))”, 54.3 °C. As for “CGACGTGCGGGATGTGCTG+CAGCACATGCCGCACGTCG ((((((((((.((((((((+)))))))).))))))))))”, the figure is 63.7 °C. Consider “CGACGTGCACGATGTGCTG+CAGCACATTCTGCACGTCG (((((((((..((((((((+))))))))..)))))))))”, for which the Tm came to 49.2 °C. With “CGACGTGCCCAATGTGCTG+CAGCACATCCCGCACGTCG ((((((((...((((((((+))))))))...))))))))” the figure was 47.9 °C; with “CGACGTGCTAAATGTGCTG+CAGCACATCCGGCACGTCG ((((((((...((((((((+))))))))...))))))))”, 49.5 °C.

Consider “CGACGTGCCGTATGTGCTG+CAGCACATGCTGCACGTCG ((((((((.(.((((((((+)))))))).).))))))))”, for which the Tm came to 51.2 °C. As for “CGACGTGCTTTATGTGCTG+CAGCACATCACGCACGTCG ((((((((.(.((((((((+)))))))).).))))))))”, the figure is 47.9 °C. With “CGACGTGCCGGATGTGCTG+CAGCACATATGGCACGTCG (((((((((..((((((((+))))))))..)))))))))” the figure was 57.2 °C; with “CGACGTGCTATATGTGCTG+CAGCACATGGCGCACGTCG ((((((((...((((((((+))))))))...))))))))”, 48.5 °C. As for “CGACGTGCAGAATGTGCTG+CAGCACATTGTGCACGTCG (((((((((.(((((((((+))))))))).)))))))))”, the figure is 55.8 °C; as for “CGACGTGCGCCATGTGCTG+CAGCACATGATGCACGTCG ((((((((..(((((((((+)))))))))..))))))))”, 54.9 °C; as for “CGACGTGCTTCATGTGCTG+CAGCACATACTGCACGTCG ((((((((...((((((((+))))))))...))))))))”, 48.3 °C. For “CGACGTGCTAGATGTGCTG+CAGCACATCTTGCACGTCG ((((((((.((((((((((+)))))))))).))))))))”, the melting temperature (Tm) came out at 58.7 °C. With “CGACGTGCCACATGTGCTG+CAGCACATAAGGCACGTCG (((((((((..((((((((+))))))))..)))))))))” the figure was 54 °C; with “CGACGTGCGGGATGTGCTG+CAGCACATCTGGCACGTCG ((((((((..(((((((((+)))))))))..))))))))”, 57.1 °C.

Take “CGACGTGCCACATGTGCTG+CAGCACATTGCGCACGTCG ((((((((...((((((((+))))))))...))))))))”: the Tm was 50.5 °C.

Consider “CGACGTGCTATATGTGCTG+CAGCACATTACGCACGTCG ((((((((...((((((((+))))))))...))))))))”, for which the midpoint of thermal melting (Tm) turned out to be 49.3 °C. As for “CGACGTGCGAAATGTGCTG+CAGCACATAGCGCACGTCG (((((((((..((((((((+))))))))..)))))))))”, the figure is 55.4 °C; as for “CGACGTGCGTTATGTGCTG+CAGCACATTCTGCACGTCG ((((((((...((((((((+))))))))...))))))))”, 50 °C; as for “CGACGTGCTAGATGTGCTG+CAGCACATTCAGCACGTCG (((((((((..((((((((+))))))))..)))))))))”, 52.8 °C. As for “CGACGTGCCAAATGTGCTG+CAGCACATTAGGCACGTCG (((((((((.(((((((((+))))))))).)))))))))”, the figure is 57.8 °C; as for “CGACGTGCCCTATGTGCTG+CAGCACATACCGCACGTCG ((((((((..(((((((((+)))))))))..))))))))”, 47.4 °C; as for “CGACGTGCCGGATGTGCTG+CAGCACATAGCGCACGTCG ((((((((...((((((((+))))))))...))))))))”, 49.9 °C. For the substance “CGACGTGCCTGATGTGCTG+CAGCACATTTAGCACGTCG ((((((((...((((((((+))))))))...))))))))”, the midpoint of thermal melting (Tm) is 49.6 °C.

For “CGACGTGCTTTATGTGCTG+CAGCACATGGGGCACGTCG ((((((((...((((((((+))))))))...))))))))”, the melting temperature (Tm) is 51 °C. With “CGACGTGCGGCATGTGCTG+CAGCACATTATGCACGTCG ((((((((...((((((((+))))))))...))))))))”, the Tm worked out at 49 °C. With “CGACGTGCGCGATGTGCTG+CAGCACATCGTGCACGTCG ((((((((.((((((((((+)))))))))).))))))))” the figure was 62.4 °C; with “CGACGTGCTGTATGTGCTG+CAGCACATATTGCACGTCG ((((((((..(((((((((+)))))))))..))))))))”, 52.7 °C. As for “CGACGTGCGTTATGTGCTG+CAGCACATTTGGCACGTCG ((((((((...((((((((+))))))))...))))))))”, the figure is 49.4 °C. With “CGACGTGCATGATGTGCTG+CAGCACATATTGCACGTCG (((((((((..((((((((+))))))))..)))))))))” the figure was 52.3 °C.

On to “CGACGTGCGTGATGTGCTG+CAGCACATCACGCACGTCG (((((((((((((((((((+)))))))))))))))))))”, for which the Tm turned out to be 66.2 °C. “CGACGTGCAGGATGTGCTG+CAGCACATAACGCACGTCG ((((((((...((((((((+))))))))...))))))))”: the Tm turned out to be 50.8 °C.

With “CGACGTGCCGGATGTGCTG+CAGCACATTCTGCACGTCG ((((((((.(.((((((((+)))))))).).))))))))”, the Tm turned out to be 52.3 °C. As for “CGACGTGCGAAATGTGCTG+CAGCACATCGGGCACGTCG ((((((((...((((((((+))))))))...))))))))”, the figure is 48.6 °C; as for “CGACGTGCTTTATGTGCTG+CAGCACATTCAGCACGTCG (((((((((..((((((((+))))))))..)))))))))”, 50.5 °C; as for “CGACGTGCAATATGTGCTG+CAGCACATGCGGCACGTCG ((((((((...((((((((+))))))))...))))))))”, 49.7 °C. In the case of “CGACGTGCAGAATGTGCTG+CAGCACATCACGCACGTCG ((((((((...((((((((+))))))))...))))))))”, the Tm is 50.1 °C. For the substance “CGACGTGCTGTATGTGCTG+CAGCACATGCGGCACGTCG ((((((((.(.((((((((+)))))))).).))))))))”, the midpoint of thermal melting (Tm) was found to be 55.7 °C. With “CGACGTGCAGCATGTGCTG+CAGCACATTCGGCACGTCG ((((((((.(.((((((((+)))))))).).))))))))” the figure was 49.7 °C. With “CGACGTGCTCCATGTGCTG+CAGCACATGGTGCACGTCG ((((((((.((((((((((+)))))))))).))))))))” the figure was 58.9 °C; with “CGACGTGCATAATGTGCTG+CAGCACATTAGGCACGTCG ((((((((.((((((((((+)))))))))).))))))))”, 57.7 °C.

As to “CGACGTGCTGGATGTGCTG+CAGCACATGTCGCACGTCG ((((((((...((((((((+))))))))...))))))))”, the midpoint of thermal melting (Tm) stood at 50.3 °C. With “CGACGTGCGCGATGTGCTG+CAGCACATGAAGCACGTCG ((((((((...((((((((+))))))))...))))))))” the figure was 54.4 °C; with “CGACGTGCGGAATGTGCTG+CAGCACATCGGGCACGTCG ((((((((...((((((((+))))))))...))))))))”, 50 °C; with “CGACGTGCATCATGTGCTG+CAGCACATTCAGCACGTCG ((((((((...((((((((+))))))))...))))))))”, 47.8 °C. As for “CGACGTGCAAGATGTGCTG+CAGCACATTAGGCACGTCG ((((((((...((((((((+))))))))...))))))))”, the figure is 51.3 °C; as for “CGACGTGCAAGATGTGCTG+CAGCACATATAGCACGTCG ((((((((.(.((((((((+)))))))).).))))))))”, 52 °C.

Regarding “CGACGTGCTCAATGTGCTG+CAGCACATACGGCACGTCG ((((((((...((((((((+))))))))...))))))))”, the midpoint of thermal melting (Tm) was determined as 48.1 °C. With “CGACGTGCGGCATGTGCTG+CAGCACATGACGCACGTCG (((((((((.(((((((((+))))))))).)))))))))” the figure was 64 °C; with “CGACGTGCAATATGTGCTG+CAGCACATGGTGCACGTCG (((((((((..((((((((+))))))))..)))))))))”, 51 °C; with “CGACGTGCTCAATGTGCTG+CAGCACATGGGGCACGTCG ((((((((.(.((((((((+)))))))).).))))))))”, 55 °C.

With “CGACGTGCGGCATGTGCTG+CAGCACATAGGGCACGTCG ((((((((...((((((((+))))))))...))))))))”, the melting temperature (Tm) was 49.5 °C. As for “CGACGTGCTCTATGTGCTG+CAGCACATGGCGCACGTCG ((((((((.(.((((((((+)))))))).).))))))))”, the figure is 51.6 °C. As for “CGACGTGCACCATGTGCTG+CAGCACATCTTGCACGTCG (((((((((..((((((((+))))))))..)))))))))”, the Tm was 45.7 °C. As for “CGACGTGCCGGATGTGCTG+CAGCACATCTGGCACGTCG (((((((((.(((((((((+))))))))).)))))))))”, the Tm came out at 62.7 °C. As for “CGACGTGCATGATGTGCTG+CAGCACATGATGCACGTCG ((((((((((.((((((((+)))))))).))))))))))”, the figure is 56.8 °C; as for “CGACGTGCCGAATGTGCTG+CAGCACATGCGGCACGTCG ((((((((((.((((((((+)))))))).))))))))))”, 61.6 °C. As for “CGACGTGCCTCATGTGCTG+CAGCACATAGCGCACGTCG ((((((((...((((((((+))))))))...))))))))”, the figure is 49.6 °C; as for “CGACGTGCTCAATGTGCTG+CAGCACATCCAGCACGTCG (((((((((..((((((((+))))))))..)))))))))”, 50.5 °C; as for “CGACGTGCTCAATGTGCTG+CAGCACATGGCGCACGTCG ((((((((.(.((((((((+)))))))).).))))))))”, 51.8 °C. For the substance “CGACGTGCTAAATGTGCTG+CAGCACATGAAGCACGTCG (((((((((..((((((((+))))))))..)))))))))”, the Tm was 54.6 °C. With “CGACGTGCTGTATGTGCTG+CAGCACATAGAGCACGTCG (((((((((.(((((((((+))))))))).)))))))))” the figure was 55.9 °C.

Values taken from the array DNA melting data of Ke et al..
